# Assay results reported in patent US20250011428A1.
# Target: Gamma receptors FcγRI, FcγRII, and FcγRIII expressed on THP-1 cells
# Experiment: cell-based or functional assay
row,Maximum response in RGA assay (LU),Binder
1,11900,"CD3_2_YTE (antibody, human IgG1, lambda) heavy: EVQLVESGGGLVQPGGSLKLSCAASGFTFNTYAMNWVRQASGKGLEWVGRIRSKYNNYATYYADSVKDRFTISRDDSKSTLYLQMNSLKTEDTAVYYCVRHGNFGNSYVSWFAYWGQGTLVTVSSASTKGPSVFPLAPSSKSTSGGTAALGCLVKDYFPEPVTVSWNSGALTSGVHTFPAVLQSSGLYSLSSVVTVPSSSLGTQTYICNVNHKPSNTKVDKRVEPKSCDKTHTCPPCPAPELCCHPSVFLFPPKPKDTLYITREPEVTCVVVGLRHEDPEVKFNWYVDGVEVHNAKTKPREEQYCGCYRVVSVLTVLHQDWLNGKEYKCKVSNKALPAPIEKTISKAKGQPREPQVYTLPPSRDELTKNQVSLTCLVKGFYPSDIAVEWESNGQPENNYKTTPPVLDSDGSFFLYSKLTVDKSRWQQGNVFSCSVMHEALHNHYTQKSLSLSPGK light: QAVVTQEPSLTVSPGGTVTLTCRSSTGAVTTSNYANWVQQKPGQAPRGLIGGTNKRAPWTPARFSGSLLGDKAALTLSGAQPEDEAEYFCALWYSNLWVFGGGTKLTVLGQPKAAPSVTLFPPSSEELQANKATLVCLISDFYPGAVTVAWKADSSPVKAGVETTTPSKQSNNKYAASSYLSLTPEQWKSHRSYSCQVTHEGSTVEKTVAPTECS"
2,13100,"CD3_5_YTE (antibody, human IgG1, lambda) heavy: EVQLVESGGGLVQPGGSLKLSCAASGFTFNTYAMNWVRQASGKGLEWVGRIRSKYNNYATYYADSVKDRFTISRDDSKSTLYLQMNSLKTEDTAVYYCVRHGNFGNSYVSWFAYWGQGTLVTVSSASTKGPSVFPLAPSSKSTSGGTAALGCLVKDYFPEPVTVSWNSGALTSGVHTFPAVLQSSGLYSLSSVVTVPSSSLGTQTYICNVNHKPSNTKVDKRVEPKSCDKTHTCPPCPAPELCCGPSVFLFPPKPKDTLYITREPEVTCVVVDVSHEDPEVKFNWYVDGVEVHNAKTKPREEQYCSCYRVVSVLTVLHQDWLNGKEYKCKVSNKALPAPIEKTISKAKGQPREPQVYTLPPSRDELTKNQVSLTCLVKGFYPSDIAVEWESNGQPENNYKTTPPVLDSDGSFFLYSKLTVDKSRWQQGNVFSCSVMHEALHNHYTQKSLSLSPGK light: QAVVTQEPSLTVSPGGTVTLTCRSSTGAVTTSNYANWVQQKPGQAPRGLIGGTNKRAPWTPARFSGSLLGDKAALTLSGAQPEDEAEYFCALWYSNLWVFGGGTKLTVLGQPKAAPSVTLFPPSSEELQANKATLVCLISDFYPGAVTVAWKADSSPVKAGVETTTPSKQSNNKYAASSYLSLTPEQWKSHRSYSCQVTHEGSTVEKTVAPTECS"
3,16500,"CD3_4_YTE (antibody, human IgG1, lambda) heavy: EVQLVESGGGLVQPGGSLKLSCAASGFTFNTYAMNWVRQASGKGLEWVGRIRSKYNNYATYYADSVKDRFTISRDDSKSTLYLQMNSLKTEDTAVYYCVRHGNFGNSYVSWFAYWGQGTLVTVSSASTKGPSVFPLAPSSKSTSGGTAALGCLVKDYFPEPVTVSWNSGALTSGVHTFPAVLQSSGLYSLSSVVTVPSSSLGTQTYICNVNHKPSNTKVDKRVEPKSCDKTHTCPPCPAPELCCHPSVFLFPPKPKDTLYITREPEVTCVVVDVSHEDPEVKFNWYVDGVEVHNAKTKPREEQYCGCYRVVSVLTVLHQDWLNGKEYKCKVSNKALPAPIEKTISKAKGQPREPQVYTLPPSRDELTKNQVSLTCLVKGFYPSDIAVEWESNGQPENNYKTTPPVLDSDGSFFLYSKLTVDKSRWQQGNVFSCSVMHEALHNHYTQKSLSLSPGK light: QAVVTQEPSLTVSPGGTVTLTCRSSTGAVTTSNYANWVQQKPGQAPRGLIGGTNKRAPWTPARFSGSLLGDKAALTLSGAQPEDEAEYFCALWYSNLWVFGGGTKLTVLGQPKAAPSVTLFPPSSEELQANKATLVCLISDFYPGAVTVAWKADSSPVKAGVETTTPSKQSNNKYAASSYLSLTPEQWKSHRSYSCQVTHEGSTVEKTVAPTECS"
4,19900,"CD3_5 (antibody, human IgG1, lambda) heavy: EVQLVESGGGLVQPGGSLKLSCAASGFTFNTYAMNWVRQASGKGLEWVGRIRSKYNNYATYYADSVKDRFTISRDDSKSTLYLQMNSLKTEDTAVYYCVRHGNFGNSYVSWFAYWGQGTLVTVSSASTKGPSVFPLAPSSKSTSGGTAALGCLVKDYFPEPVTVSWNSGALTSGVHTFPAVLQSSGLYSLSSVVTVPSSSLGTQTYICNVNHKPSNTKVDKRVEPKSCDKTHTCPPCPAPELCCGPSVFLFPPKPKDTLMISRTPEVTCVVVDVSHEDPEVKFNWYVDGVEVHNAKTKPREEQYCSCYRVVSVLTVLHQDWLNGKEYKCKVSNKALPAPIEKTISKAKGQPREPQVYTLPPSRDELTKNQVSLTCLVKGFYPSDIAVEWESNGQPENNYKTTPPVLDSDGSFFLYSKLTVDKSRWQQGNVFSCSVMHEALHNHYTQKSLSLSPGK light: QAVVTQEPSLTVSPGGTVTLTCRSSTGAVTTSNYANWVQQKPGQAPRGLIGGTNKRAPWTPARFSGSLLGDKAALTLSGAQPEDEAEYFCALWYSNLWVFGGGTKLTVLGQPKAAPSVTLFPPSSEELQANKATLVCLISDFYPGAVTVAWKADSSPVKAGVETTTPSKQSNNKYAASSYLSLTPEQWKSHRSYSCQVTHEGSTVEKTVAPTECS"
5,12300,"CD3_DANAPA_YTE (antibody, human IgG1, lambda, N297A) heavy: EVQLVESGGGLVQPGGSLKLSCAASGFTFNTYAMNWVRQASGKGLEWVGRIRSKYNNYATYYADSVKDRFTISRDDSKSTLYLQMNSLKTEDTAVYYCVRHGNFGNSYVSWFAYWGQGTLVTVSSASTKGPSVFPLAPSSKSTSGGTAALGCLVKDYFPEPVTVSWNSGALTSGVHTFPAVLQSSGLYSLSSVVTVPSSSLGTQTYICNVNHKPSNTKVDKRVEPKSCDKTHTCPPCPAPELLGGPSVFLFPPKPKDTLYITREPEVTCVVVAVSHEDPEVKFNWYVDGVEVHNAKTKPREEQYASTYRVVSVLTVLHQDWLNGKEYKCKVSNKALAAPIEKTISKAKGQPREPQVYTLPPSRDELTKNQVSLTCLVKGFYPSDIAVEWESNGQPENNYKTTPPVLDSDGSFFLYSKLTVDKSRWQQGNVFSCSVMHEALHNHYTQKSLSLSPGK light: QAVVTQEPSLTVSPGGTVTLTCRSSTGAVTTSNYANWVQQKPGQAPRGLIGGTNKRAPWTPARFSGSLLGDKAALTLSGAQPEDEAEYFCALWYSNLWVFGGGTKLTVLGQPKAAPSVTLFPPSSEELQANKATLVCLISDFYPGAVTVAWKADSSPVKAGVETTTPSKQSNNKYAASSYLSLTPEQWKSHRSYSCQVTHEGSTVEKTVAPTECS"
6,24700,"CD3_1 (antibody, human IgG1, lambda) heavy: EVQLVESGGGLVQPGGSLKLSCAASGFTFNTYAMNWVRQASGKGLEWVGRIRSKYNNYATYYADSVKDRFTISRDDSKSTLYLQMNSLKTEDTAVYYCVRHGNFGNSYVSWFAYWGQGTLVTVSSASTKGPSVFPLAPSSKSTSGGTAALGCLVKDYFPEPVTVSWNSGALTSGVHTFPAVLQSSGLYSLSSVVTVPSSSLGTQTYICNVNHKPSNTKVDKRVEPKSCDKTHTCPPCPAPELCCHPRVFLFPPKPKDTLMISRTPEVTCVVTGLRDEDPEVKFNWYVDGVEVHNAKTKPREEQYCGCYSVVSVLTVLHQDWLNGKEYKCKVSNKALPAPIEKTISKAKGQPREPQVYTLPPSRDELTKNQVSLTCLVKGFYPSDIAVEWESNGQPENNYKTTPPVLDSDGSFFLYSKLTVDKSRWQQGNVFSCSVMHEALHNHYTQKSLSLSPGK light: QAVVTQEPSLTVSPGGTVTLTCRSSTGAVTTSNYANWVQQKPGQAPRGLIGGTNKRAPWTPARFSGSLLGDKAALTLSGAQPEDEAEYFCALWYSNLWVFGGGTKLTVLGQPKAAPSVTLFPPSSEELQANKATLVCLISDFYPGAVTVAWKADSSPVKAGVETTTPSKQSNNKYAASSYLSLTPEQWKSHRSYSCQVTHEGSTVEKTVAPTECS"
7,31800,IgG4_CD3_WT_YTE (antibody) heavy: EVQLVESGGGLVQPGGSLKLSCAASGFTFNTYAMNWVRQASGKGLEWVGRIRSKYNNYATYYADSVKDRFTISRDDSKSTLYLQMNSLKTEDTAVYYCVRHGNFGNSYVSWFAYWGQGTLVTVSSASTKGPSVFPLAPCSRSTSESTAALGCLVKDYFPEPVTVSWNSGALTSGVHTFPAVLQSSGLYSLSSVVTVPSSSLGTKTYTCNVDHKPSNTKVDKRVESKYGPPCPSCPAPEFLGGPSVFLFPPKPKDTLYITREPEVTCVVVDVSQEDPEVQFNWYVDGVEVHNAKTKPREEQFNSTYRVVSVLTVLHQDWLNGKEYKCKVSNKGLPSSIEKTISKAKGQPREPQVYTLPPSQEEMTKNQVSLTCLVKGFYPSDIAVEWESNGQPENNYKTTPPVLDSDGSFFLYSRLTVDKSRWQEGNVFSCSVMHEALHNHYTQKSLSLSL light: QAVVTQEPSLTVSPGGTVTLTCRSSTGAVTTSNYANWVQQKPGQAPRGLIGGTNKRAPWTPARFSGSLLGDKAALTLSGAQPEDEAEYFCALWYSNLWVFGGGTKLTVLGQPKAAPSVTLFPPSSEELQANKATLVCLISDFYPGAVTVAWKADSSPVKAGVETTTPSKQSNNKYAASSYLSLTPEQWKSHRSYSCQVTHEGSTVEKTVAPTECS
8,13100,"CD3_3_YTE (antibody, human IgG1, lambda) heavy: EVQLVESGGGLVQPGGSLKLSCAASGFTFNTYAMNWVRQASGKGLEWVGRIRSKYNNYATYYADSVKDRFTISRDDSKSTLYLQMNSLKTEDTAVYYCVRHGNFGNSYVSWFAYWGQGTLVTVSSASTKGPSVFPLAPSSKSTSGGTAALGCLVKDYFPEPVTVSWNSGALTSGVHTFPAVLQSSGLYSLSSVVTVPSSSLGTQTYICNVNHKPSNTKVDKRVEPKSCDKTHTCPPCPAPELCCHPSVFLFPPKPKDTLYITREPEVTCVVTGLRDEDPEVKFNWYVDGVEVHNAKTKPREEQYCGCYRVVSVLTVLHQDWLNGKEYKCKVSNKALPAPIEKTISKAKGQPREPQVYTLPPSRDELTKNQVSLTCLVKGFYPSDIAVEWESNGQPENNYKTTPPVLDSDGSFFLYSKLTVDKSRWQQGNVFSCSVMHEALHNHYTQKSLSLSPGK light: QAVVTQEPSLTVSPGGTVTLTCRSSTGAVTTSNYANWVQQKPGQAPRGLIGGTNKRAPWTPARFSGSLLGDKAALTLSGAQPEDEAEYFCALWYSNLWVFGGGTKLTVLGQPKAAPSVTLFPPSSEELQANKATLVCLISDFYPGAVTVAWKADSSPVKAGVETTTPSKQSNNKYAASSYLSLTPEQWKSHRSYSCQVTHEGSTVEKTVAPTECS"
9,12000,"CD3_1_YTE (antibody, human IgG1, lambda) heavy: EVQLVESGGGLVQPGGSLKLSCAASGFTFNTYAMNWVRQASGKGLEWVGRIRSKYNNYATYYADSVKDRFTISRDDSKSTLYLQMNSLKTEDTAVYYCVRHGNFGNSYVSWFAYWGQGTLVTVSSASTKGPSVFPLAPSSKSTSGGTAALGCLVKDYFPEPVTVSWNSGALTSGVHTFPAVLQSSGLYSLSSVVTVPSSSLGTQTYICNVNHKPSNTKVDKRVEPKSCDKTHTCPPCPAPELCCHPRVFLFPPKPKDTLYITREPEVTCVVTGLRDEDPEVKFNWYVDGVEVHNAKTKPREEQYCGCYSVVSVLTVLHQDWLNGKEYKCKVSNKALPAPIEKTISKAKGQPREPQVYTLPPSRDELTKNQVSLTCLVKGFYPSDIAVEWESNGQPENNYKTTPPVLDSDGSFFLYSKLTVDKSRWQQGNVFSCSVMHEALHNHYTQKSLSLSPGK light: QAVVTQEPSLTVSPGGTVTLTCRSSTGAVTTSNYANWVQQKPGQAPRGLIGGTNKRAPWTPARFSGSLLGDKAALTLSGAQPEDEAEYFCALWYSNLWVFGGGTKLTVLGQPKAAPSVTLFPPSSEELQANKATLVCLISDFYPGAVTVAWKADSSPVKAGVETTTPSKQSNNKYAASSYLSLTPEQWKSHRSYSCQVTHEGSTVEKTVAPTECS"
